Laboratory results reported in patent US20240252614A1.

What was measured:
Details in all cases: remark: other sources report otherwise
[1] = target: hMPV A F WT Control (hMPV A), Q6WB98; assay: BLI, no stress
hMPV080 (hMPV A), Q6WB98 [2] = assay: BLI, no stress
hMPV087 (hMPV A), Q6WB98 [3] = assay: BLI, 53C stress
hMPV090 (hMPV A), Q6WB98 [4] = assay: BLI, 53C stress
hMPV083 (hMPV A), Q6WB98 [5] = assay: BLI, 53C stress
hMPV086 (hMPV A), Q6WB98 [6] = assay: BLI, 53C stress
[7] = target: hMPV A F WT Control (hMPV A), Q6WB98; assay: BLI, 53C stress
hMPV089 (hMPV A), Q6WB98 [8] = assay: BLI, 53C stress
hMPV084 (hMPV A), Q6WB98 [9] = assay: BLI, 53C stress
hMPV078 (hMPV A), Q6WB98 [10] = assay: BLI, 53C stress
hMPV085 (hMPV A), Q6WB98 [11] = assay: BLI, 53C stress
[12] = target: hMPV A F WT Control (hMPV A), Q6WB98; assay: BLI, 68C stress
hMPV080 (hMPV A), Q6WB98 [13] = assay: BLI, 68C stress
hMPV087 (hMPV A), Q6WB98 [14] = assay: BLI, 58C stress
hMPV090 (hMPV A), Q6WB98 [15] = assay: BLI, 58C stress
hMPV083 (hMPV A), Q6WB98 [16] = assay: BLI, 58C stress
hMPV086 (hMPV A), Q6WB98 [17] = assay: BLI, 58C stress
hMPV088 (hMPV A), Q6WB98 [18] = assay: BLI, 58C stress
hMPV079 (hMPV A), Q6WB98 [19] = assay: BLI, 58C stress
[20] = target: hMPV A F WT Control (hMPV A), Q6WB98; assay: BLI, 58C stress
hMPV089 (hMPV A), Q6WB98 [21] = assay: BLI, 58C stress
hMPV084 (hMPV A), Q6WB98 [22] = assay: BLI, 58C stress
hMPV078 (hMPV A), Q6WB98 [23] = assay: BLI, 58C stress
hMPV082 (hMPV A), Q6WB98 [24] = assay: BLI, 58C stress
hMPV097 (hMPV A), Q6WB98 [25] = assay: BLI, 58C stress
hMPV081 (hMPV A), Q6WB98 [26] = assay: BLI, 58C stress
hMPV085 (hMPV A), Q6WB98 [27] = assay: BLI, 58C stress
hMPV087 (hMPV A), Q6WB98 [28] = assay: BLI, no stress
hMPV090 (hMPV A), Q6WB98 [29] = assay: BLI, no stress
hMPV083 (hMPV A), Q6WB98 [30] = assay: BLI, no stress
hMPV086 (hMPV A), Q6WB98 [31] = assay: BLI, no stress
hMPV088 (hMPV A), Q6WB98 [32] = assay: BLI, no stress
hMPV079 (hMPV A), Q6WB98 [33] = assay: BLI, no stress
[34] = target: hMPV A F WT Control (hMPV A), Q6WB98; assay: BLI, no stress; remark: listed apart in the source
hMPV089 (hMPV A), Q6WB98 [35] = assay: BLI, no stress
hMPV084 (hMPV A), Q6WB98 [36] = assay: BLI, no stress
hMPV078 (hMPV A), Q6WB98 [37] = assay: BLI, no stress
hMPV082 (hMPV A), Q6WB98 [38] = assay: BLI, no stress
hMPV097 (hMPV A), Q6WB98 [39] = assay: BLI, no stress
hMPV081 (hMPV A), Q6WB98 [40] = assay: BLI, no stress
hMPV085 (hMPV A), Q6WB98 [41] = assay: BLI, no stress
[42] = target: hMPV A F WT Control (hMPV A), Q6WB98; assay: BLI, 53C stress; remark: listed apart in the source
hMPV080 (hMPV A), Q6WB98 [43] = assay: BLI, 53C stress

B1: MPE8 mAb (antibody, V domains shown)
VH: EVQLVESGGGLVKPGGSLRLSCAASGFTFSSYSMNWVRQAPGKGLEWVSSISASSSYSDYADSAKGRFTISRDNAKTSLFLQMNSLRAEDTAIYFCARARATGYSSITPYFDIWGQGTLVTVSS
VL: QSVVTQTPSVSGAPGQRVTISCTGSSSNIGAGYDVHWYQQLPGTAPKLLIYDNNNRPSGVPDRFSASKSGTSASLAITGLQAEDEADYYCQSYDRNLSGVFGTGTKVTVL
Q: Which results are given for B1?
A: Response Shift [1]: 0.102 nm; Response Shift (hMPV080 (hMPV A), Q6WB98 [2]): 0.787 nm; Response Shift (hMPV087 (hMPV A), Q6WB98 [3]): 0.903 nm; Response Shift (hMPV090 (hMPV A), Q6WB98 [4]): 0.909 nm; Response Shift (hMPV083 (hMPV A), Q6WB98 [5]): 0.796 nm; Response Shift (hMPV086 (hMPV A), Q6WB98 [6]): 0.86 nm; Response Shift [7]: 0.096 nm; Response Shift (hMPV089 (hMPV A), Q6WB98 [8]): 0.928 nm; Response Shift (hMPV084 (hMPV A), Q6WB98 [9]): 0.908 nm; Response Shift (hMPV078 (hMPV A), Q6WB98 [10]): 0.939 nm; Response Shift (hMPV085 (hMPV A), Q6WB98 [11]): 0.889 nm; Response Shift [12]: 0.025 nm; Response Shift (hMPV080 (hMPV A), Q6WB98 [13]): -0.075 nm; Response Shift (hMPV087 (hMPV A), Q6WB98 [14]): 0.805 nm; Response Shift (hMPV090 (hMPV A), Q6WB98 [15]): 0.906 nm; Response Shift (hMPV083 (hMPV A), Q6WB98 [16]): 0.768 nm; Response Shift (hMPV086 (hMPV A), Q6WB98 [17]): 0.736 nm; Response Shift (hMPV088 (hMPV A), Q6WB98 [18]): 0.812 nm; Response Shift (hMPV079 (hMPV A), Q6WB98 [19]): 0.867 nm; Response Shift [20]: 0.006 nm; Response Shift (hMPV089 (hMPV A), Q6WB98 [21]): 0.917 nm; Response Shift (hMPV084 (hMPV A), Q6WB98 [22]): 0.665 nm; Response Shift (hMPV078 (hMPV A), Q6WB98 [23]): 0.939 nm; Response Shift (hMPV082 (hMPV A), Q6WB98 [24]): 0.928 nm; Response Shift (hMPV097 (hMPV A), Q6WB98 [25]): 0.918 nm; Response Shift (hMPV081 (hMPV A), Q6WB98 [26]): 0.945 nm; Response Shift (hMPV085 (hMPV A), Q6WB98 [27]): 0.757 nm; Response Shift (hMPV087 (hMPV A), Q6WB98 [28]): 0.979 nm; Response Shift (hMPV090 (hMPV A), Q6WB98 [29]): 0.903 nm; Response Shift (hMPV083 (hMPV A), Q6WB98 [30]): 0.805 nm; Response Shift (hMPV086 (hMPV A), Q6WB98 [31]): 0.834 nm; Response Shift (hMPV088 (hMPV A), Q6WB98 [32]): 0.974 nm; Response Shift (hMPV079 (hMPV A), Q6WB98 [33]): 0.887 nm; Response Shift [34]: 0.926 nm; Response Shift (hMPV089 (hMPV A), Q6WB98 [35]): 0.959 nm; Response Shift (hMPV084 (hMPV A), Q6WB98 [36]): 0.924 nm; Response Shift (hMPV078 (hMPV A), Q6WB98 [37]): 0.955 nm; Response Shift (hMPV082 (hMPV A), Q6WB98 [38]): 0.949 nm; Response Shift (hMPV097 (hMPV A), Q6WB98 [39]): 0.918 nm; Response Shift (hMPV081 (hMPV A), Q6WB98 [40]): 0.955 nm; Response Shift (hMPV085 (hMPV A), Q6WB98 [41]): 0.877 nm; Response Shift [42]: 0.037 nm; Response Shift (hMPV080 (hMPV A), Q6WB98 [43]): 0.798 nm
